Target: SuperFi-Cas9 (7-D Cas9) 7-D: seven RuvC loop residues shown in FIG. 4b each mutated to Asp (individual residues not listed in text) (Streptococcus pyogenes) (UniProt Q99ZW2)
Assay: cleavage_in_vitro
Details: PAM TGG, 10 mM Mg2+, 37 C

Sequence | activity (kobs +/- 0.0002, amplitude 8.4 nM, 500-fold slower than on-target) [s⁻¹] | activity (kobs +/- 0.1, amplitude 7.7 nM, 6.3-fold preference over 18-20 MM in competition) [s⁻¹]
GACGCAUAAAGAUGAGACGC / AGCTGACGTTTGTACTCCAGCGTCTCATCTTTATGCCAGAGCAGAGATTTCTGCT / AGCAGAAATCTCTGCTCTGGCATAAAGATGAGACGCTGGAGTACAAACGTCAGCT [sgRNA ; 18-20 MM DNA] | 0.004 | –
GACGCAUAAAGAUGAGACGC / AGCTGACGTTTGTACTCCAGCGTCTCATCTTTATGCGTCAGCAGAGATTTCTGCT / AGCAGAAATCTCTGCTGACGCATAAAGATGAGACGCTGGAGTACAAACGTCAGCT [sgRNA ; On-target DNA] | – | 2
